± gives the uncertainty stated by the source.
B1: Bromodomain adjacent to zinc finger domain protein 2B, residues 1927 to 1982; numbered along this chain, Q9UIF8 (parent)
chain: KSIMKVYCQICRKGDNEELLLLCDGCDKGCHTYCHRPKITTIPDGDWFCPACIAKA

Variants of: B1
Assay: abundance fitness (aPCA) (normalised: wild type 0, dead -1); higher = more abundant; growth selection in yeast, the domain comes from the species named
Conditions: Homo sapiens

Point of comparison: R12D, abundance fitness -0.021 ± 0.1. Against it:
- C11M — lower, -1.08 ± 0.17
- C11A — lower, -1.03 ± 0.088
- C11H — lower, -0.85 ± 0.28
- C11P — lower, -0.767 ± 0.11
- C11V — lower, -1.16 ± 0.099
- C11N — lower, -1.04 ± 0.2
- C11W — lower, -1.21 ± 0.14
- C11E — lower, -0.808 ± 0.12
- C11I — lower, -0.912 ± 0.15
- C11S — lower, -0.997 ± 0.097
- C11K — lower, -0.887 ± 0.21
- C11T — lower, -1.14 ± 0.17
- C11G — lower, -1.1 ± 0.081
- C11L — lower, -1.01 ± 0.1
- C11D — lower, -1.05 ± 0.15
- C11F — lower, -0.961 ± 0.17
- C11Q — lower, -1.19 ± 0.18
- C11R — lower, -0.933 ± 0.081
- L19C — within error, -0.071 ± 0.17
- L19S — within error, -0.03 ± 0.094
- L19R — within error, -0.078 ± 0.097
- L19G — within error, -0.064 ± 0.08
- L19D — within error, -0.138 ± 0.13
- L19P — within error, -0.08 ± 0.13
- L19I — within error, -0.125 ± 0.18
- L19V — within error, -0.011 ± 0.074
- L19K — within error, -0.016 ± 0.13
- L19W — within error, -0.03 ± 0.11
- L19Q — within error, 0.137 ± 0.17
- L19N — within error, 0.027 ± 0.14
- L19M — within error, 0.061 ± 0.13
- L19F — lower, -0.294 ± 0.17
- L19T — within error, -0.1 ± 0.11
- L19Y — within error, -0.067 ± 0.18
- L19E — within error, -0.012 ± 0.093
- L21F — lower, -0.3 ± 0.13
- L21I — within error, -0.072 ± 0.15
- L21T — within error, -0.042 ± 0.097
- L21P — lower, -0.524 ± 0.12
- L21A — within error, -0.117 ± 0.1
- L21M — within error, -0.076 ± 0.13
- L21W — lower, -0.248 ± 0.1
- L21D — lower, -0.346 ± 0.12
- L21E — lower, -0.336 ± 0.14
- L21G — lower, -0.224 ± 0.083
- L21Y — lower, -0.374 ± 0.11
- L21H — lower, -0.37 ± 0.15
- L21S — within error, -0.2 ± 0.08
- L21N — within error, -0.206 ± 0.12
- L21K — within error, -0.005 ± 0.12
- N16E — within error, 0.018 ± 0.14
- N16S — within error, -0.008 ± 0.085
- N16W — within error, -0.183 ± 0.11
- N16H — within error, 0 ± 0.14
- N16A — within error, -0.125 ± 0.096
- N16L — within error, -0.116 ± 0.084
- N16T — within error, -0.017 ± 0.1
- N16Y — within error, -0.032 ± 0.15
- N16V — within error, -0.181 ± 0.11
- N16G — within error, -0.014 ± 0.082
- N16I — within error, -0.098 ± 0.13
- N16M — within error, -0.165 ± 0.16
- N16C — within error, -0.081 ± 0.1
- N16D — within error, 0.046 ± 0.21
- N16Q — within error, 0.01 ± 0.16
- N16F — lower, -0.329 ± 0.15
- E17P — within error, 0.085 ± 0.2
- E17C — within error, 0.005 ± 0.14
- E17I — within error, -0.127 ± 0.24
- E17N — within error, -0.139 ± 0.21
- E17M — within error, -0.052 ± 0.14
- E17S — within error, -0.015 ± 0.12
- E17W — within error, -0.092 ± 0.093
- E17G — within error, 0.022 ± 0.076
- E17R — within error, 0.072 ± 0.078
- E17T — within error, -0.069 ± 0.19
- E17L — within error, -0.008 ± 0.098
- E17Q — within error, 0.103 ± 0.16
- E17H — within error, -0.34 ± 0.24
- E17F — within error, -0.363 ± 0.35
- E17D — within error, -0.038 ± 0.2
- E17Y — lower, -0.409 ± 0.26
- E17K — within error, 0.172 ± 0.18
- G14V — within error, 0.035 ± 0.08
- G14A — within error, 0.011 ± 0.082
- G14Y — within error, 0.079 ± 0.18
- G14E — within error, -0.07 ± 0.11
- G14M — within error, 0.002 ± 0.15
- G14Q — within error, -0.003 ± 0.13
- G14P — within error, -0.026 ± 0.11
- G14I — within error, -0.23 ± 0.31
- G14D — within error, -0.056 ± 0.15
- G14T — within error, 0.046 ± 0.12
- G14F — within error, -0.127 ± 0.19
- G14S — within error, 0.032 ± 0.092
- G14C — within error, -0.171 ± 0.13
- G14L — within error, -0.056 ± 0.075
- G14K — within error, -0.063 ± 0.14
- G14R — within error, 0.018 ± 0.068
- G14H — within error, -0.054 ± 0.18
- K28G — within error, -0.02 ± 0.079
- K28L — within error, -0.025 ± 0.097
- K28A — within error, -0.085 ± 0.079
- K28Q — within error, 0.094 ± 0.19
- K28I — lower, -0.329 ± 0.15
- K28Y — within error, -0.035 ± 0.16
- K28C — within error, -0.158 ± 0.13
- K28H — within error, 0.04 ± 0.2
- K28S — within error, -0.089 ± 0.087
- K28F — within error, 0.094 ± 0.14
- K28M — within error, -0.002 ± 0.12
- K28W — within error, 0.008 ± 0.1
- K28E — within error, 0.034 ± 0.11
- K28D — within error, -0.055 ± 0.13
- K28T — within error, -0.026 ± 0.11
- K28N — within error, -0.047 ± 0.14
- K28P — lower, -0.755 ± 0.15
- R12K — within error, 0.043 ± 0.13
- R12F — within error, -0.23 ± 0.16
- R12Y — within error, -0.183 ± 0.15
- R12G — within error, -0.055 ± 0.063
- R12I — within error, 0.001 ± 0.15
- R12A — within error, 0.008 ± 0.073
- R12T — within error, -0.028 ± 0.1
- R12V — within error, -0.079 ± 0.065
- R12E — within error, 0.008 ± 0.097
- R12S — within error, 0.042 ± 0.09
- R12P — lower, -0.89 ± 0.17
- R12W — lower, -0.256 ± 0.11
- R12H — within error, -0.187 ± 0.14
- R12Q — within error, -0.041 ± 0.14
- R12M — within error, -0.05 ± 0.11
- R12C — within error, -0.163 ± 0.12
- G25H — within error, -0.124 ± 0.17
- G25T — within error, -0.09 ± 0.1
- G25S — within error, -0.149 ± 0.081
- G25E — within error, -0.014 ± 0.1
- G25R — within error, -0.096 ± 0.072
- G25W — lower, -0.251 ± 0.096
- G25L — lower, -0.266 ± 0.09
- G25Y — within error, -0.221 ± 0.31
- G25A — within error, -0.171 ± 0.084
- G25Q — within error, 0.003 ± 0.13
- G25I — lower, -0.45 ± 0.26
- G25P — lower, -0.551 ± 0.1
- G25K — within error, -0.031 ± 0.13
- G25D — within error, -0.192 ± 0.093
- G25N — within error, -0.16 ± 0.13
- G25F — lower, -0.33 ± 0.19
- G29L — within error, -0.149 ± 0.074
- G29C — within error, 0.004 ± 0.11
- G29F — within error, -0.035 ± 0.18
- G29H — within error, -0.167 ± 0.17
- G29Q — within error, -0.053 ± 0.11
- G29M — lower, -0.279 ± 0.12
- G29N — within error, -0.013 ± 0.16
- G29V — within error, 0.002 ± 0.079
- G29S — within error, -0.019 ± 0.074
- G29I — within error, 0.084 ± 0.22
- G29E — within error, -0.078 ± 0.1
- G29A — within error, -0.061 ± 0.086
- G29R — within error, -0.075 ± 0.064
- G29P — lower, -0.321 ± 0.11
- G29D — lower, -0.378 ± 0.12
- G29T — within error, -0.088 ± 0.11
- C23Y — lower, -0.42 ± 0.18
